The values below come from patent US11807689.

For this test, the target named is C1q Receptor in the complement system (rabbit serum complement) (rabbit). In words: cell-based or functional assay.

For RITUXAN (rituximab) (antibody), the CDC EC50 (Jeko-1 cells, rabbit serum) came out at 0.245 µg/mL.

Substance ARZERRA (ofatumumab) (antibody) returned a CDC EC50 (Jeko-1 cells, rabbit serum) of 0.353 µg/mL.

OCREVUS (ocrelizumab) (antibody) showed a CDC EC50 (Jeko-1 cells, rabbit serum) of 1.21 µg/mL.
